EC50 data for one substance are collected here from PMC8229176.

For the assay, the target named is ACE2 on ACE2-transfected HEK293 cells (UniProt Q9BYF1). The assay is described as follows: flow cytometry on cells. (Flow cytometry measures light scatter and fluorescence of single cells or particles in a stream.)
Sequence of UniProt Q9BYF1 (Q9BYF1 18-805): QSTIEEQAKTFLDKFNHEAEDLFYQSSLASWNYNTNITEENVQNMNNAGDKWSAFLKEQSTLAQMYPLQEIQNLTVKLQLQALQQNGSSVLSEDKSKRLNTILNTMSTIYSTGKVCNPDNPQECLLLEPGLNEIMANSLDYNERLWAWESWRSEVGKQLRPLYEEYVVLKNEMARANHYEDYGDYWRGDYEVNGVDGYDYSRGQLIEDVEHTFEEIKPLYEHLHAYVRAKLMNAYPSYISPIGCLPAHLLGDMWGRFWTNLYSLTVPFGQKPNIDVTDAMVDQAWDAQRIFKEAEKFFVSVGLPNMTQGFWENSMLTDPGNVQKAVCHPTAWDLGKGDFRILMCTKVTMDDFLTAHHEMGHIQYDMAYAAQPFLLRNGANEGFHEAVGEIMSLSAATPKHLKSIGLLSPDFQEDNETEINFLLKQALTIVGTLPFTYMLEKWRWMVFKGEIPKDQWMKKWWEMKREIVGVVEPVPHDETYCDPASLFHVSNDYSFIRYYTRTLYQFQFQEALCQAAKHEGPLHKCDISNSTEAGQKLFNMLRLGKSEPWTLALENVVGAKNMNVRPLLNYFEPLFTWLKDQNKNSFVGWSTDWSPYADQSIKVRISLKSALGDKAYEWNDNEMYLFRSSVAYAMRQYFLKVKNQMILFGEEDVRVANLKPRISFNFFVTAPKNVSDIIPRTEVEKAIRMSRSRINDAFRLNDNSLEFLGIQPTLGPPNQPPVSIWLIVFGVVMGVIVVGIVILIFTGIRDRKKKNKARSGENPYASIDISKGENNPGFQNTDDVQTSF

As to “SARS-CoV-2 spike protein receptor-binding domain (RBD), His6-tagged (domain or fragment)”, the EC50 was found to be 49.1 nM.

By EC50 is commonly meant the concentration at which the effect is half-maximal. The low end stands for a more potent agent, the high end for a less potent agent.
